# From the supplement of paper PMC10567573
# B1: ACSBG2 (parent)
# chain: FAQADALKGTLVSTLKEVKPTVFI
# Variants of: B1
# Assay: protein stability index of a GFP-peptide fusion (GPS, HEK-293T) (PSI 1-6); higher = more stable
# Conditions: c terminus: a fixed tail appended
# 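Also: lentivirally expressed fusions sorted by FACS into six bins by GFP to DsRed ratio, PSI derived from sequencing read proportions per bin multiplied by bin number.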
row,Variant,protein stability index
1,F1K,2.25
2,F1Y,1.96
3,F1L,2
4,F1S,2
5,F1N,2.59
6,F1M,2.14
7,F1P,2.31
8,F1A,2.26
9,F1Q,3.73
10,F1V,1.54
11,F1G,2.46
12,F1C,1.3
13,F1H,1.98
14,F1R,1.83
15,F1W,1.46
16,F1D,2.43
17,F1I,2.25
18,F1E,3.21
19,F1T,2.33
20,T10K,1.98
21,T10N,1.61
22,T10I,2.96
23,T10M,2.76
24,T10D,2.07

row,Variant,protein stability index
1,T10A,2.04
2,T10F,2.23
3,T10E,1.65
4,T10H,2.91
5,T10P,1.14
6,T10C,1.81
7,T10G,1.46
8,A4T,1.94
9,A4N,2.14
10,A4Q,1.44
11,A4F,2.18
12,A4G,2.44
13,A4S,1.69
14,A4H,2.31
15,A4P,3.08
16,A4I,1.66
17,A4V,1.48
18,A4D,2.74
19,A4Y,1.52
20,A4K,2.03
21,A4C,2.52
22,A4M,2.05
23,A4L,1.69
24,A4R,2.19

row,Variant,protein stability index
1,A4E,2.77
2,K8G,2.31
3,K8R,1.8
4,K8D,1.9
5,K8E,1.41
6,K8A,2.12
7,K8M,1.22
8,K8P,1.4
9,K8Y,3
10,K8N,1.59
11,K8H,2.74
12,K8C,1.85
13,K8Q,2.39
14,K8S,1.71
15,K8T,3.3
16,K8F,2.34
17,A6P,1.69
18,A6Y,3.07
19,A6N,1.58
20,A6S,2.08
21,A6G,1.57
22,A6E,1.95
23,A6T,2.21
24,A6W,3.31

row,Variant,protein stability index
1,A6F,2.84
2,A6R,1.67
3,A6D,1.71
4,A6H,1.61
5,A6C,1.28
6,A6Q,1.54
7,A6M,1.9
8,A6V,2.58
9,A6K,2.23
10,A6I,1.34
11,L7T,2.02
12,L7A,2.1
13,L7D,2.12
14,L7C,1.52
15,L7I,1.86
16,L7G,1.3
17,L7E,2.5
18,L7P,2.05
19,L7F,3.08
20,L7M,2.73
21,L7K,2.37
22,L7S,1.67
23,L7R,2.07
24,L7N,1.73

row,Variant,protein stability index
1,L7H,2.16
2,L7V,1.91
3,L7Q,2.11
4,A2T,1.56
5,A2N,1.45
6,A2S,1.76
7,A2L,2.46
8,A2D,2.11
9,A2G,2.13
10,A2E,2.05
11,A2Q,1.64
12,A2C,1.85
13,A2K,2.49
14,A2I,1.22
15,A2P,1.48
16,A2F,2.79
17,A2R,1.42
18,A2H,2.08
19,A2M,1.79
20,Q3F,3.71
21,Q3G,3.16
22,Q3D,1.36
23,Q3S,1.28
24,Q3K,2.06

row,Variant,protein stability index
1,Q3T,1.8
2,Q3C,1.4
3,Q3I,4.29
4,Q3W,2.13
5,Q3Y,1.45
6,Q3N,3.49
7,Q3L,2.44
8,Q3E,1.74
9,Q3V,3.21
10,Q3A,1.86
11,Q3M,3.51
12,Q3R,2.92
13,G9I,4.73
14,G9M,2.03
15,G9E,1.5
16,G9A,2.24
17,G9P,2.01
18,G9W,3.93
19,G9T,1.38
20,G9V,2.61
21,G9L,2.72
22,G9C,2.73
23,G9Y,1.78
24,G9R,2.76

row,Variant,protein stability index
1,G9S,2.84
2,G9K,2.32
3,G9H,1.55
4,G9Q,2.52
5,G9N,1.27
6,G9F,2.24
7,G9D,1.59
8,D5H,1.3
9,D5Q,2.4
10,D5P,1.9
11,D5I,2.7
12,D5T,2.12
13,D5F,3.26
14,D5E,1.26
15,D5K,1.69
16,D5R,1.55
17,D5A,3.35
18,D5V,2.08
19,D5Y,1.44
20,D5N,1.9
21,D5M,2.98
22,D5C,1.35
23,D5S,2.67
